Source: the supplement of paper PMC9112550, “Optimization of the antimicrobial peptide Bac7 by deep mutational scanning” (BMC Biology, 2022)
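Note: peptides expressed intracellularly from a pBAD plasmid library in pooled LB shake-flask culture, induced with 0.3% L-arabinose, DNA abundance read by NGS, three biological replicates, DESeq2 with apeglm shrinkage.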

What follows are sequences tested on Escherichia coli TOP10 (assay: shrunken log2 fold change of peptide-encoding DNA abundance (4.5 h post-induction vs induction); higher = less antimicrobial activity (less host growth inhibition)). Conditions: time post-induction: 4.5 h; library: site-saturation at positions 5, 18, 19, 20.
RRIRRRPPRLPRPRPRPKIWPRP was tested, and the “shrunken log2 fold change” value was 0.227. RRIRRRPPRLPRPRPRPKKDPRP was tested, and the “shrunken log2 fold change” value was 0.176. RRIRRRPPRLPRPRPRPKKSPRP was tested, and the “shrunken log2 fold change” value was 0.237. RRIRRRPPRLPRPRPRPKMCPRP was tested, and the “shrunken log2 fold change” value was -0.0385. In the case of RRIRRRPPRLPRPRPRPKMIPRP, the “shrunken log2 fold change” value is reported as 0.103. RRIRRRPPRLPRPRPRPKMNPRP was tested, and the “shrunken log2 fold change” value was -0.0665. For RRIRRRPPRLPRPRPRPKMQPRP, the “shrunken log2 fold change” value was 0.336. With RRIRRRPPRLPRPRPRPKNDPRP the “shrunken log2 fold change” value was 0.277. For RRIRRRPPRLPRPRPRPKNMPRP, the “shrunken log2 fold change” value was -0.00338. In the case of RRIRRRPPRLPRPRPRPKPSPRP, the “shrunken log2 fold change” value is reported as 0.294. With RRIRRRPPRLPRPRPRPKQLPRP the “shrunken log2 fold change” value was 0.148. For RRIRRRPPRLPRPRPRPKRMPRP, the “shrunken log2 fold change” value was 0.514. RRIRRRPPRLPRPRPRPKRSPRP was tested, and the “shrunken log2 fold change” value was 0.11. With RRIRRRPPRLPRPRPRPKTYPRP the “shrunken log2 fold change” value was -0.239. For RRIRRRPPRLPRPRPRPKVHPRP, the “shrunken log2 fold change” value was 0.153. In the case of RRIRRRPPRLPRPRPRPKVLPRP, the “shrunken log2 fold change” value is reported as 0.378. RRIRRRPPRLPRPRPRPKVPPRP was tested, and the “shrunken log2 fold change” value was -0.0226. RRIRRRPPRLPRPRPRPKWRPRP was tested, and the “shrunken log2 fold change” value was 0.587. With RRIRRRPPRLPRPRPRPKYPPRP the “shrunken log2 fold change” value was -0.0539. In the case of RRIRRRPPRLPRPRPRPKYWPRP, the “shrunken log2 fold change” value is reported as 0.00676. With RRIRRRPPRLPRPRPRPLADPRP the “shrunken log2 fold change” value was 0.311. For RRIRRRPPRLPRPRPRPLAFPRP, the “shrunken log2 fold change” value was 0.448. In the case of RRIRRRPPRLPRPRPRPLDQPRP, the “shrunken log2 fold change” value is reported as -0.0226. RRIRRRPPRLPRPRPRPLEAPRP was tested, and the “shrunken log2 fold change” value was 0.404. In the case of RRIRRRPPRLPRPRPRPLENPRP, the “shrunken log2 fold change” value is reported as 0.194. In the case of RRIRRRPPRLPRPRPRPLFGPRP, the “shrunken log2 fold change” value is reported as 0.649. In the case of RRIRRRPPRLPRPRPRPLFTPRP, the “shrunken log2 fold change” value is reported as 1.61. For RRIRRRPPRLPRPRPRPLFVPRP, the “shrunken log2 fold change” value was -0.0826. RRIRRRPPRLPRPRPRPLGAPRP was tested, and the “shrunken log2 fold change” value was 0.468. RRIRRRPPRLPRPRPRPLGFPRP was tested, and the “shrunken log2 fold change” value was 0.592. With RRIRRRPPRLPRPRPRPLHAPRP the “shrunken log2 fold change” value was 1.06. RRIRRRPPRLPRPRPRPLHEPRP was tested, and the “shrunken log2 fold change” value was -0.0162. For RRIRRRPPRLPRPRPRPLHLPRP, the “shrunken log2 fold change” value was -0.318. RRIRRRPPRLPRPRPRPLHQPRP was tested, and the “shrunken log2 fold change” value was 0.32. With RRIRRRPPRLPRPRPRPLHRPRP the “shrunken log2 fold change” value was 0.202. In the case of RRIRRRPPRLPRPRPRPLKNPRP, the “shrunken log2 fold change” value is reported as 0.29. In the case of RRIRRRPPRLPRPRPRPLLCPRP, the “shrunken log2 fold change” value is reported as 0.35. For RRIRRRPPRLPRPRPRPLMSPRP, the “shrunken log2 fold change” value was -0.246. For RRIRRRPPRLPRPRPRPLNQPRP, the “shrunken log2 fold change” value was 0.0755. In the case of RRIRRRPPRLPRPRPRPLNSPRP, the “shrunken log2 fold change” value is reported as 0.134. RRIRRRPPRLPRPRPRPLPKPRP was tested, and the “shrunken log2 fold change” value was 0.634. In the case of RRIRRRPPRLPRPRPRPLPYPRP, the “shrunken log2 fold change” value is reported as -0.0149. RRIRRRPPRLPRPRPRPLQEPRP was tested, and the “shrunken log2 fold change” value was 0.019. With RRIRRRPPRLPRPRPRPLRAPRP the “shrunken log2 fold change” value was 1.17. In the case of RRIRRRPPRLPRPRPRPLRLPRP, the “shrunken log2 fold change” value is reported as 0.59. RRIRRRPPRLPRPRPRPLRNPRP was tested, and the “shrunken log2 fold change” value was 0.94. In the case of RRIRRRPPRLPRPRPRPLRSPRP, the “shrunken log2 fold change” value is reported as 0.531. For RRIRRRPPRLPRPRPRPLRYPRP, the “shrunken log2 fold change” value was 0.463. RRIRRRPPRLPRPRPRPLSIPRP was tested, and the “shrunken log2 fold change” value was -0.288. For RRIRRRPPRLPRPRPRPLSMPRP, the “shrunken log2 fold change” value was 0.263. In the case of RRIRRRPPRLPRPRPRPLVEPRP, the “shrunken log2 fold change” value is reported as 0.116. RRIRRRPPRLPRPRPRPLVNPRP was tested, and the “shrunken log2 fold change” value was 0.0359. With RRIRRRPPRLPRPRPRPLVWPRP the “shrunken log2 fold change” value was 0.529. In the case of RRIRRRPPRLPRPRPRPLYDPRP, the “shrunken log2 fold change” value is reported as -0.0854. With RRIRRRPPRLPRPRPRPLYKPRP the “shrunken log2 fold change” value was -0.248. RRIRRRPPRLPRPRPRPMAEPRP was tested, and the “shrunken log2 fold change” value was -0.0431. RRIRRRPPRLPRPRPRPMATPRP was tested, and the “shrunken log2 fold change” value was 0.609. In the case of RRIRRRPPRLPRPRPRPMCIPRP, the “shrunken log2 fold change” value is reported as -0.182. For RRIRRRPPRLPRPRPRPMDHPRP, the “shrunken log2 fold change” value was -0.0417. RRIRRRPPRLPRPRPRPMDKPRP was tested, and the “shrunken log2 fold change” value was -0.283. In the case of RRIRRRPPRLPRPRPRPMEMPRP, the “shrunken log2 fold change” value is reported as -0.0817. RRIRRRPPRLPRPRPRPMESPRP was tested, and the “shrunken log2 fold change” value was -0.00992. In the case of RRIRRRPPRLPRPRPRPMGFPRP, the “shrunken log2 fold change” value is reported as 0.317. With RRIRRRPPRLPRPRPRPMGTPRP the “shrunken log2 fold change” value was 0.241. RRIRRRPPRLPRPRPRPMHHPRP was tested, and the “shrunken log2 fold change” value was 0.0725. For RRIRRRPPRLPRPRPRPMHLPRP, the “shrunken log2 fold change” value was 0.156. In the case of RRIRRRPPRLPRPRPRPMILPRP, the “shrunken log2 fold change” value is reported as 0.359. For RRIRRRPPRLPRPRPRPMLCPRP, the “shrunken log2 fold change” value was 0.709. In the case of RRIRRRPPRLPRPRPRPMLNPRP, the “shrunken log2 fold change” value is reported as -0.157. For RRIRRRPPRLPRPRPRPMNCPRP, the “shrunken log2 fold change” value was -0.0277. In the case of RRIRRRPPRLPRPRPRPMNGPRP, the “shrunken log2 fold change” value is reported as -0.0419. For RRIRRRPPRLPRPRPRPMNKPRP, the “shrunken log2 fold change” value was 0.0717. In the case of RRIRRRPPRLPRPRPRPMPEPRP, the “shrunken log2 fold change” value is reported as 0.124. RRIRRRPPRLPRPRPRPMPTPRP was tested, and the “shrunken log2 fold change” value was 0.178. RRIRRRPPRLPRPRPRPMQAPRP was tested, and the “shrunken log2 fold change” value was 1.13. In the case of RRIRRRPPRLPRPRPRPMQCPRP, the “shrunken log2 fold change” value is reported as 0.00703. RRIRRRPPRLPRPRPRPMQIPRP was tested, and the “shrunken log2 fold change” value was 0.58. RRIRRRPPRLPRPRPRPMREPRP was tested, and the “shrunken log2 fold change” value was 0.0493. In the case of RRIRRRPPRLPRPRPRPMRSPRP, the “shrunken log2 fold change” value is reported as 0.579. RRIRRRPPRLPRPRPRPMSGPRP was tested, and the “shrunken log2 fold change” value was 0.0609. With RRIRRRPPRLPRPRPRPMSMPRP the “shrunken log2 fold change” value was -0.17. For RRIRRRPPRLPRPRPRPMTCPRP, the “shrunken log2 fold change” value was 0.129. RRIRRRPPRLPRPRPRPMTDPRP was tested, and the “shrunken log2 fold change” value was 0.00399. For RRIRRRPPRLPRPRPRPMTIPRP, the “shrunken log2 fold change” value was 0.0416. For RRIRRRPPRLPRPRPRPMTTPRP, the “shrunken log2 fold change” value was 0.0808. RRIRRRPPRLPRPRPRPMVFPRP was tested, and the “shrunken log2 fold change” value was 0.182. For RRIRRRPPRLPRPRPRPMVHPRP, the “shrunken log2 fold change” value was 0.113. For RRIRRRPPRLPRPRPRPMVQPRP, the “shrunken log2 fold change” value was -0.00615. RRIRRRPPRLPRPRPRPMWRPRP was tested, and the “shrunken log2 fold change” value was 0.312. For RRIRRRPPRLPRPRPRPNALPRP, the “shrunken log2 fold change” value was 0.261. For RRIRRRPPRLPRPRPRPNCAPRP, the “shrunken log2 fold change” value was 0.32. In the case of RRIRRRPPRLPRPRPRPNCEPRP, the “shrunken log2 fold change” value is reported as 0.227. For RRIRRRPPRLPRPRPRPNDDPRP, the “shrunken log2 fold change” value was 0.0687. RRIRRRPPRLPRPRPRPNDIPRP was tested, and the “shrunken log2 fold change” value was -0.349. For RRIRRRPPRLPRPRPRPNEWPRP, the “shrunken log2 fold change” value was 0.0626. With RRIRRRPPRLPRPRPRPNEYPRP the “shrunken log2 fold change” value was -0.123. For RRIRRRPPRLPRPRPRPNFMPRP, the “shrunken log2 fold change” value was 0.142. With RRIRRRPPRLPRPRPRPNFPPRP the “shrunken log2 fold change” value was 0.46. In the case of RRIRRRPPRLPRPRPRPNFWPRP, the “shrunken log2 fold change” value is reported as 0.198. With RRIRRRPPRLPRPRPRPNILPRP the “shrunken log2 fold change” value was -0.0406. For RRIRRRPPRLPRPRPRPNKHPRP, the “shrunken log2 fold change” value was 0.117. In the case of RRIRRRPPRLPRPRPRPNLLPRP, the “shrunken log2 fold change” value is reported as -0.00833. For RRIRRRPPRLPRPRPRPNLSPRP, the “shrunken log2 fold change” value was -0.0897. For RRIRRRPPRLPRPRPRPNNDPRP, the “shrunken log2 fold change” value was -0.358. For RRIRRRPPRLPRPRPRPNNHPRP, the “shrunken log2 fold change” value was -0.374. RRIRRRPPRLPRPRPRPNPNPRP was tested, and the “shrunken log2 fold change” value was 0.369. For RRIRRRPPRLPRPRPRPNQYPRP, the “shrunken log2 fold change” value was -0.506. With RRIRRRPPRLPRPRPRPNRPPRP the “shrunken log2 fold change” value was 0.198. For RRIRRRPPRLPRPRPRPNRRPRP, the “shrunken log2 fold change” value was 0.231.
